assay: soluble on expression in E. coli; label from the status in PepcDB or PDB records

Row | Sequence | soluble on expression in E. coli
1 | MKTAIVYYSQHHGNTKKLLDAIAIVDDVTLIDVTKHTAYDLNEFNLIGFASGIYFQKFSKKVLDFAKNNLPFNKKVFFIYTCGIKFPSYTVAIRAVVKEKNADIVGEYGCPGFDTFGPFKIVGGIRKGRPNENDIAKAVQFFRGILKLEHHHHHH | soluble
2 | MFLDEHINRNFDKLNDNDLHIAHFINTHIDECKNMKIQDLAQFTHASNATIHRFTRKLGFDGYSDFKSYLKFESNKTHQLPSNSIDSFKQEIDSTFSYLERVDYQLLTEKMHTA | not soluble
3 | MGSDKIHHHHHHMLSSAEKVKGQGVASAYRELVNLLEERYKNEIDMKINSFEKSDITHYHTVDFRFFLSTFFKKKRGVRVGYVHFLPETMEGSLKLPWIARVVFYKYLIGFYKRMDEIVVVNPSFIPKLTAYNIPAEKIHYIPNFVSKKSFFPISKGEKELARAKYEIPADKFTVIGIGQVQHRKGVLDFIEVAKQLPDVQFVWAGGFSFGKITSGYEELKKIYDNPPSNVKFIGIVDRSEMNSCINMADVFFMPSYNELFPMAILEAMSCDVPILLRNLDLYEEILDGYYVKEVDNPGFIRAIERLENDTNYYNEMLQASKRGAAYYSEDRLAEIWLDFYQGLLTKE | not soluble
4 | MPTLGFRFRAYTDEQTLRALKAQLKLACKIYNTLRWADIYFYQRDGKGLTQTELRQLALDLRKQDDEYKQLYSQVVQQIADRYYEARQRFFEGLARFPKEKKPHKYYSLVYPQYGWKILHVREIRKGSKKKLITLKLSNLGTFKVIVHRDFPLDKVKRVVVKLTRSERIYITFVVDHEFPKLPNTGKVVAIDVGVEKLLVTSDGEYFPNLRPYEKALWKVKHLHRELSRKKFLSNNWFKAKVKLARAYEYLKNLRTDLYMKLGKWFAEHYDVVVMEGIHAKQLVGKSLRSLRRRLSDVGFGELRGVLKYQLEKYGKKLILVNPAYTSKTCARCGYVKNDLSLSDRVFVCPNCGWIADRDYNASLNILRGSGSERPLVPVELRPLPVLWQGGAMKQEAPSFMRGLEHHHHHH | not soluble
5 | MSYLLALDAGTGSIRAVIFDLNGRQLAVGQAEWKHLSVDNVPGSMEFDLTTNWQLACQCIRQALDAARLSAADIQSVACCSMREGIVLYDRNGEAIWACANVDARASREVAELKEIHDFRFESEVYEVSGQTLALSAMPRLLWLAHHRPDIYRKAATITMISDWLAAKLSGELAVDPSNAGTTGMLDLFSRDWRPALLDMAGLRADMLSPVKETGTLLGAVTEAAAQQSGLRAGTPVVMGGGD | not soluble
6 | QGMISFTQQNEQEADRIGIQVLQRSGFDPQAMPTFLEKLLDQARYSSRPPEILLTHPLPESRLADARNRANQMRPIVVQSSEDFYLAKVRTLGMYNSGRNQLTSDLLDEWAKGNVRQQRAAQYGRALQAMEANKYDEARKTLQPLLAAEPGNAWYLDLATDIDLGQNKANDAINRLKNARDLRTNPVLQLNLANAYLQGGQPQEAANILNRYTFNNKDDSNGWDLLAQAEAALNNRDQELAARAEGYALAGRLDQAISLLSSASS | not soluble
7 | MVQKLSRPSPDFLKGLKSILQGDHPSLKQLEQDINIFYMNQRQSQSMLEERKLYVALVRKYLKSEGVTKQLASQGIKLRGLSVFGSFPTHCASKDSDLDLCVCATATGNKKQLPVIILQAIFRDMMYSKEGQNIFGENVVSGISFVQTAKVPIIRFKINDVPVDLSATFDDNPRTSLAAKYINAYCQLDDRFKILVMFLKKWMKSEGRAEDHLRIYPNSYSIILLLIHVLQWYDILPNLHQTHSDLFHRGNFKLSDLAELRHEFKFPLDENTISMHRKRPSNDLTVVQLLYLFACQYSNHVVLLNYRFNMRNGEIEALSQKDQDYQITILDAYDVRNPGRSARNALDLVKTLEALKSLLVQPHEGMFKTVMEITRNRTYERVVPPPQVLYQDYDMQFGADPYNMPLVGSVEYQQWLEQVAMHHQIQMMQGQMMQQQIVFTAPEMYYYSQQQQQPHPIFGIQQSSQFF | not soluble
8 | DDAAIKRKLQSFNISNIVIKSSPISGIKTAVTDQGILYVSEDGKYLFEGKLYELTNNGPVDVAGKILVDKLNSYKDEMIVYPAKNEKHVVTVFMDITCHYCHLLHQQLKEYNDLGITVRYLAFPRAGMNNQTAKQMEAIWTAKDPVFALNEAEKGNLPKEVKTPNIVKKHYELGIQFGVRGTPSIVTSTGELIGGYLKPADLLRALEETAQ | soluble
9 | SDTNSNQGIAFVHGTRDHREDAYGGYWKIDFIQSISQTLAKPENHYVVHCDFSQYMWHEDAANCVANQLLEFINDKNVSSLTVYTHSDGANIMRWILSNPTYDGRYMTLKRKISQVIAIAPSSGGTPLADEVLNGGIFETSLAWLLGYLSDAVKQQRVGDMLIYNEELLLGSKGRPSLSIPFKVIVGTDVYASPFSTSSYCNGYMLNSGLKIAKLYLNQCADGFLDCESQAQAGEVWFYDIDKTDYNLPLSHNQSRHSCFGLDQI | not soluble
10 | GMSRTLVLFDIDGTLLKVESMNRRVLADALIEVYGTEGSTGSHDFSGKMDGAIIYEVLSNVGLERAEIADKFDKAKETYIALFRERARREDITLLEGVRELLDALSSRSDVLLGLLTGNFEASGRHKLKLPGIDHYFPFGAFADDALDRNELPHIALERARRMTGANYSPSQIVIIGDTEHDIRCARELDARSIAVATGNFTMEELARHKPGTLFKNFAETDEVLASILTPKHS | soluble
11 | RNQVEHEAKVSLAKSFGAGIAHEMRNPLSGLCTSIDVIQSVLPNKKAMGEKDQYVMSGEDVTLLREVSEDAMNIIHSGNETIDLLLTSIDENRVSRSSFKRYSAQSVVEKAIESFSYKRSTDRFAISFDARSEFDFLGSDTLLKYVMYNLFKNAFHHRSSDEFHIHVSMQSNDTANQIVVTDNGSGIAPDVIRHIFQDFYTTGKSGSYGLGLPFCKKVMRSFGGNIKCISQPGEWSQFTLTFPPITSDTVTEIKDELTKMKSILLVSNQDIIVQKMADISRFMGFDVTVLDVKSVFKKKEYEFEFDLIFVDVESLDVLENQLDRIESLLSFTEARVVYLFEHKPAQRAKKVGHDPIWVETQAWLLNTKATIERLLYDSTYISSTLPSAPL | not soluble
12 | MSLLVMKCSKCSAEAIYYAKYNGLYLCRDHFNEMIEGRVKKEIRKQVEFHGDDVTISVALSGGKDSSVTLFLLHKILGNRKNMKIKAFTVDEGIDGYRPSGLESAKRLCTSLGIDHETISFYDSYGLTLDSIVKTNPVKIPCAYCGPLRRKLINEMADKQDADYVALGLNLDDYSQSILMNVAKGDFDRFIRMSPQTDRKVGLVRRIAPLRTILEKEVVLYAVTNDIPFDSSWCPYYSRAQRNVFREVVNKLSEENPSTKFAILKFFDRVRENITTGHEEVKLKRCKICGAPTERDVCTACSSLQEVNEMMAEHEGHHHHHH | soluble
13 | MSLKTERILLPVDGSESSYRAAYCAAQAAQLCGAEVLLLHCVDQTEQNGEAPLVDTTLAEDTTTNRHPKQADALGMATANDLIGPVRDILEDHGIRYMERIVEGEPATCIPRVAQNTRCGLIVMGRSGKTPSGRLPVGSVTGRVVGAAHCPVIVAEGHHHHHH | soluble
14 | PHSHPALTPEQKKELSDIAHRIVAPGKGILAADESTGSIAKRLQSIGTENTEENRRFYRQLLLTADDRVNPCIGGVILFHETLYQKADDGRPFPQVIKSKGGVVGIMVDKGVVPLAGTNGETTTQGLDGLSERCAQYKKDGADFAKWRCVLKIGEHTPSALAIMENANVLARYASICQQNGIVPIVEPEILPDGDHDLKRCQYVTEKVLAAVYKALSDHHIYLEGTLLKPNMVTPGHACTQKYSHEEIAMATVTALRRTVPPAVTGVTFLSGGQSEEEASINLNAINKCPLLKPWALTFSYGRALQASALKAWGGKKENLKAAQEEYVKRALANSLACQGKYTSSGQAGAAASESLFISNHAY | soluble
15 | MGSDKIHHHHHHMSERLRVLVVSHGHPAMSLGGAEIASHSLHKGLNTLPGVESIYLARVGHPVPRHGASALMSLRLAVDEVLFHADDYDHFFLSNGDTEAIRRDLLRFIGDLSPHVIHFHHLIGMGMEALYALREALPEAVIVVTFHEYLSLCHNHGQMVKRPSAQLCNSSSPISCHGCFPDIPVSRFLRREEFLRGMLGLADAFISPSMFLANRYVEWGIDAEKLSVIDNGIVMGEAAPVRDLPVPSARRNRFAYFGQMTPFKGIDVLVDAVSRVPEEIWGEDSCLMIFGGNLERQPAEFQERLKKLIDDAGRRVRFYGAYQNADMPRLMRSVDWVVLPSIWWENSPVVIQEALHHRRPIICSDIGGMAEKVQDGRDGLHFRAGSAQDLADRLSDVLVKPEAWDRLHATLRPPTGHAESARAHADLYRRLLKDRRSPLGAAQYEAAAQAVV | not soluble
16 | MARIGIRYAEYSAMTVLRYLQAYPPHLQAQVRQMIDSDRLGEYLQRRYPDRHDVQSDKALYGYAQDLRQQYLRSAPNLDKVLFDSRLDLTHRALGLNTAVSRVQGGKLKAKKEIRIASLFKEAAPQFLRMIVVHELAHLRERDHNKAFYQLCQHMEPDYHQLEFDLRVYLTYRELPGNLLEHHHHHH | not soluble
17 | MGSDKIHHHHHHMHYEEGDDLVASSMTYSVKEMSMRNVRPVLLSLGLLSTVGIATAADTTTFNVKIAVTKACTITAASATDVDFGSVLSTSTANADANGSVTAQCTALTPYNIALSAGSNAGTANDVTTRRMKNTDALVTTNNFVAYQLYQDLGRSTVWGSTSGTNTLSRTATGINQIYPVYGRVTNPSAGNPATGTYQDTITATIIY | not soluble
18 | MSHINLYSLPTDHKNMIRCRYCEKIYKIDNGSSGFIRHLRCKHPNVLYQMGAISNGKEYNLITKQETLSIDTNNEINLRDDDDFMMMKEFSSNQILVNFLSQLDLPTNDVNRVLGKRHRISPTPTINSSVTPNEEHEPDLKMFNSGDTLQNFLIDIDNHIRQKNQESQEAIGTGEESTSASALDMPSSQKESREPSPNSSMLDETNGGTETGDSSPTPFNPARPFGCVICPCSFPRVKDLTIHVTSVHRTRFRCNTCLAEFVQPQHLEHHYSISHAGTSTGTVVNT | not soluble
19 | MCTARTAEEIFVETIAVKTRILNDRVLLEAARAIGDRLIAGYRAGARVFMCGNGGSAADAQHFAAELTGHLIFDRPPLGAEALHANSSHLTAVANDYDYDTVFARALEGSARPGDTLFAISTSGNSMSVLRAAKTARELGVTVVAMTGESGGQLAEFADFLINVPSRDTGRIQESHIVFIHAISEHVEHALFAPRQ | soluble
20 | MERRKDTEVALAQRDTILQTILDASPDSIGIFNENMVYQACNKPFVNALGISEVSDLIGKRLQDVIPVEMYTRLETSDLHALRQAEPVRYIDKVVSSDGHITWFDVVKSPFKDKASGTNGVLIMARDIS | not soluble
21 | MADLEAVLADVSYLMAMEKSRSQPAARASKRIVLPDPSVRSIMQKFLEKSGDMKFDKIFNQKLGFLLLKDYAENVSESPCPQIKFYEAIKEYEKMETPDERLTKAREIYDHHIMVEMLAHAHNYSKESLQHVQYHLLKQNVPPDLFHRYVLEICDQLRGDIFQRFLESDKFTRFCQWKNLELNMQLTMNDFSVHRIIGRGGFGEVYGCRKADTGKMYAMKCLDKKRIKMKQGETLALNERIMLSLVSTGQDCPFIVCMTYAFQSPDKLCFILDLMNGGDLHYHLSQHGVFTEQEMIFYASEVILGLEHMHNRFVVYRDLKPANILLDENGHVRVSDLGLACDYSKKKPHASVGTHGYMAPEVLAKGVAYDSSADWFSLGCMLYKLLKGHSPFRQHKSKDKNEIDKMTLTQDIELPNEGLSKDCRDLLEGLLKRDVPDRLGCRGKGPTEVKEHPFFKDVDWQTVYLRRMTPPLIPPRGEVNAADAFDIGNFDDDEVKGVKLQDGDSDLYKNFNIVISERWQNEIAETIFEVVNQDADKAESKKRSKQKIKVAVEEKDSDVIVHGYIKKLGGPFTSAWQTKYGKLYPSRLELYPESLTAKPELVFMDQIEDVCAEMQTIKGETAIIVKLRDGFKEPKICLTNSDEISLKEWHTSLRTAHKVSQELLQRMGRKAIKIYGVNHDPMLSESERPGSVTRAFLNRASSVDSGV | not soluble
